Test results from paper PMC12714832.

Biological target: proton-dissociation-permeated sodium channel (PDPNaC1) (Scolopendra subspinipes mutilans)
Assay: cryo-EM structure; purified PDPNaC1 in LMNG/CHS, pH 8.0, 4.0 mg/mL; 121,831 particles, C3 symmetry, 3.03 Å; closed (non-conductive) state

stoichiometry N: 3
Substance: proton-dissociation-permeated sodium channel (PDPNaC1) (natural protein)
